Common to all, as to assay: cleavage_in_vitro
In one data set the target is T1, CasX variant 119 (synthetic construct).
T1 chain: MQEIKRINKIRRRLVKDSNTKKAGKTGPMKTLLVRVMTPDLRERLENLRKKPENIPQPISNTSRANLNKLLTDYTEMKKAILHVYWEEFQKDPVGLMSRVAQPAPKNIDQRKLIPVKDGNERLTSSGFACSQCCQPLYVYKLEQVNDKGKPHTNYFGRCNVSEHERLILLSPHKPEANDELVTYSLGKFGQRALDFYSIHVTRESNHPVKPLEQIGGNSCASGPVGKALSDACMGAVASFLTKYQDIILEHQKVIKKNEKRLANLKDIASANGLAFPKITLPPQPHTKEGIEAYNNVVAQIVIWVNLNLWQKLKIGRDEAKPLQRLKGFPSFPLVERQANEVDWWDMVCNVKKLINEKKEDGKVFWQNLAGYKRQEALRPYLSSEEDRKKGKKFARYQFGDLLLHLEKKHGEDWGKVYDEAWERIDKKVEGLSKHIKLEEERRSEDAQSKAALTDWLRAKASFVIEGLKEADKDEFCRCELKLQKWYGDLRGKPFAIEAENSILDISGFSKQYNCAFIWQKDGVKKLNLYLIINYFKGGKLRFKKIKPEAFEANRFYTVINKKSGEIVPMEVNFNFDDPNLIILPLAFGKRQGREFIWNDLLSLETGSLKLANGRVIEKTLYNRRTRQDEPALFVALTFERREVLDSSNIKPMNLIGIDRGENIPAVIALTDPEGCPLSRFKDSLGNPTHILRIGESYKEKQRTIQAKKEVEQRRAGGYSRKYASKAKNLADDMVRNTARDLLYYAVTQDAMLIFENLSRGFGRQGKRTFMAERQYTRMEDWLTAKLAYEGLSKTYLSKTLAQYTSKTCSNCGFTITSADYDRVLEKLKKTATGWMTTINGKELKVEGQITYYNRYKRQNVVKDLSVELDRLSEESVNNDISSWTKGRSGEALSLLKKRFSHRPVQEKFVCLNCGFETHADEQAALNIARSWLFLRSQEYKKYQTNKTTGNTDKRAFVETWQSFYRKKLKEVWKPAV

A further data set concerns the target T2, CasX variant 438 (synthetic construct).
T2 chain: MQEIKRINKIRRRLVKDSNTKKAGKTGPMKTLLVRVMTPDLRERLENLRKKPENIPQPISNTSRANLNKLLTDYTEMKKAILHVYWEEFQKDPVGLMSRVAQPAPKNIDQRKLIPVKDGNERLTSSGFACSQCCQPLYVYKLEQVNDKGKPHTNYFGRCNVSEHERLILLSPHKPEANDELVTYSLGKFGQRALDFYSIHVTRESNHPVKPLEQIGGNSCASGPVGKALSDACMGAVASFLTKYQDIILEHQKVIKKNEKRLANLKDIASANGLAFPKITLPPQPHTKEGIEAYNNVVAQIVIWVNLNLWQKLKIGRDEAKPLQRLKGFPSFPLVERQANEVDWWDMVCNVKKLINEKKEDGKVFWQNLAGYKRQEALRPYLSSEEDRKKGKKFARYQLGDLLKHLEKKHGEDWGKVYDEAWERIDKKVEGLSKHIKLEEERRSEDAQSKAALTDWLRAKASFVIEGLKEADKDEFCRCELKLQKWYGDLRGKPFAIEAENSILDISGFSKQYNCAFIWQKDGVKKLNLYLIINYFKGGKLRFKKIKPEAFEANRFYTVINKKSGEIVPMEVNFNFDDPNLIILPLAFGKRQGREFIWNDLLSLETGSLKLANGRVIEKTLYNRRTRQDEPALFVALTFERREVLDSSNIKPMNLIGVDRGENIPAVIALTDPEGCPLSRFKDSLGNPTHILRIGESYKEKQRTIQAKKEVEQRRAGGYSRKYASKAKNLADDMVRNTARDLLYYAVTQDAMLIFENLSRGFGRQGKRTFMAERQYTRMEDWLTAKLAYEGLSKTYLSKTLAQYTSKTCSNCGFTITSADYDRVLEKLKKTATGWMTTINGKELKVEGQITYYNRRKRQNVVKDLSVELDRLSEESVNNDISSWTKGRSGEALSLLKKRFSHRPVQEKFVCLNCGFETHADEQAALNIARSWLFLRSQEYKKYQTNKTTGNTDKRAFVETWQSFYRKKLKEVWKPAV

For the next data set, the target named is T3, CasX 2 (reference CasX) (Planctomycetes).
T3 chain: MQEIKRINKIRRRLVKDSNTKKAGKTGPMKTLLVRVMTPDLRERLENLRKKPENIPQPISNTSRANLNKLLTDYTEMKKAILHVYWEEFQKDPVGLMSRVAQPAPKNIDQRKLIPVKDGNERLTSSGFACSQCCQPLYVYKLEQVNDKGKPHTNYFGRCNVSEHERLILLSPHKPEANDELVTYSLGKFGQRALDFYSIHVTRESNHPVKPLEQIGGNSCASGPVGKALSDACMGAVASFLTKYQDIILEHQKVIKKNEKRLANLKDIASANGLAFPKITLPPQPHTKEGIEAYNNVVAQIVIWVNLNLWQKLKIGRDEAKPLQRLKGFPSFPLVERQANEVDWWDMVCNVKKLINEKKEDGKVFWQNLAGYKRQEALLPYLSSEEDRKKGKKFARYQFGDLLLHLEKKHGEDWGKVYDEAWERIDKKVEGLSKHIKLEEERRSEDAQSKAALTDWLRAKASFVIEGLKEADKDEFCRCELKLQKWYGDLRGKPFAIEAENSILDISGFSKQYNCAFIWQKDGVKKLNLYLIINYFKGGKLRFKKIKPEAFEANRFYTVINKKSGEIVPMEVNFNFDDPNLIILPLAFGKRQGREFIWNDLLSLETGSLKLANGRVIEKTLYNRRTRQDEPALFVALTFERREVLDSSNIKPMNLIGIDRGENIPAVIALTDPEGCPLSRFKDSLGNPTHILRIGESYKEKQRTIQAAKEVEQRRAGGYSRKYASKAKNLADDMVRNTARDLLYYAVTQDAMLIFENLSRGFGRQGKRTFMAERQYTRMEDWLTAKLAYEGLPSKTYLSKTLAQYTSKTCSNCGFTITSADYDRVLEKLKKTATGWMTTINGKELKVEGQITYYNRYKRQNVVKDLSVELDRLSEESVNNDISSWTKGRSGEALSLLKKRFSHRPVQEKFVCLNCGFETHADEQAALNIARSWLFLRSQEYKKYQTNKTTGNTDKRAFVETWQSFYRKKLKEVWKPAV

The target in a further data set is T4, CasX variant 491 (synthetic construct).
T4 chain: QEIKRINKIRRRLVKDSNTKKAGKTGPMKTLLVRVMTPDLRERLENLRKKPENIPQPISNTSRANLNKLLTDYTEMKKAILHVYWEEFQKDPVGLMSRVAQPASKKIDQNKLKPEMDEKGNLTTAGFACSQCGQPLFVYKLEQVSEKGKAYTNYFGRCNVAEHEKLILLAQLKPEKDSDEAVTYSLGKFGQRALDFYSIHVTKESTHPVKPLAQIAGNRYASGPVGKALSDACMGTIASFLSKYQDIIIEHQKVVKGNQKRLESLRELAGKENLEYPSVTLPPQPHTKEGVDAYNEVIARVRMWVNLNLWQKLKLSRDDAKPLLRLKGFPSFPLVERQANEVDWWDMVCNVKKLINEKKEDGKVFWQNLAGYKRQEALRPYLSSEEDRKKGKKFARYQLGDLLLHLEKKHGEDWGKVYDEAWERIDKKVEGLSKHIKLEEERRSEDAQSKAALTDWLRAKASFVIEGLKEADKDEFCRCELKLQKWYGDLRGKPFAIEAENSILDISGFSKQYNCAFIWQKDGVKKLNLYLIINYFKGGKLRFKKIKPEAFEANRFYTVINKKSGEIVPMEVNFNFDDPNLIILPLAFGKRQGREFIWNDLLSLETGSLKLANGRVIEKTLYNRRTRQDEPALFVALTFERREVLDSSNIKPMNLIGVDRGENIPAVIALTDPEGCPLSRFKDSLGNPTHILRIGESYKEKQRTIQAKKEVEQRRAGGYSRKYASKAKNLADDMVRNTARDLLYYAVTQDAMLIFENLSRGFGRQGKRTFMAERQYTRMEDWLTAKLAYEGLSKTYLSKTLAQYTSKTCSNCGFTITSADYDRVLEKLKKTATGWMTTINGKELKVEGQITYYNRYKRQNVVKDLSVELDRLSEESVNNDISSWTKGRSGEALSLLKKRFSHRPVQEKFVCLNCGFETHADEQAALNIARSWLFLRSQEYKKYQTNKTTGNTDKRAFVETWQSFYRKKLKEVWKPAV

B1: gRNA scaffold 174 + spacer 7.37 ; 7.37 CTC PAM target (ssRNA ; dsDNA)
RNA: ACUGGCGCUUUUAUCUGAUUACUUUGAGAGCCAUCACCAGCGACUAUGUCGUAGUGGGUAAAGCUCCCUCUUCGGAGGGAGCAUCAAAGGGGCCGAGAUGUCUCGCUCC
DNA 1: TGAAGCTGACAGCACTCGGGCCGAGATGTCTCGCTCCGTGGCCTTAGCTGTGCTCGCGCT
DNA 2: AGCGCGAGCACAGCTAAGGCCACGGAGCGAGACATCTCGGCCCGAGTGCTGTCAGCTTCA
For B1, the activity with CasX variant 119 turned out to be 0.303 min⁻¹; with CasX variant 438, 0.212 min⁻¹; with CasX 2 (reference CasX), 0.00929 min⁻¹.

B2: gRNA scaffold 174 + spacer 7.37 ; 7.37 GTC PAM target (ssRNA ; dsDNA)
RNA: ACUGGCGCUUUUAUCUGAUUACUUUGAGAGCCAUCACCAGCGACUAUGUCGUAGUGGGUAAAGCUCCCUCUUCGGAGGGAGCAUCAAAGGGGCCGAGAUGUCUCGCUCC
DNA 1: TGAAGCTGACAGCAGTCGGGCCGAGATGTCTCGCTCCGTGGCCTTAGCTGTGCTCGCGCT
DNA 2: AGCGCGAGCACAGCTAAGGCCACGGAGCGAGACATCTCGGCCCGACTGCTGTCAGCTTCA
Regarding B2, the values for the activity with CasX variant 119 and with CasX 2 (reference CasX) were 0.0864 min⁻¹ and 0.00375 min⁻¹, respectively.

B3: gRNA scaffold 174 + spacer 7.37 ; 7.37 ATC PAM target (ssRNA ; dsDNA)
RNA: ACUGGCGCUUUUAUCUGAUUACUUUGAGAGCCAUCACCAGCGACUAUGUCGUAGUGGGUAAAGCUCCCUCUUCGGAGGGAGCAUCAAAGGGGCCGAGAUGUCUCGCUCC
DNA 1: TGAAGCTGACAGCAATCGGGCCGAGATGTCTCGCTCCGTGGCCTTAGCTGTGCTCGCGCT
DNA 2: AGCGCGAGCACAGCTAAGGCCACGGAGCGAGACATCTCGGCCCGATTGCTGTCAGCTTCA
For B3, the activity turned out to be 0.54 min⁻¹ in the data set with CasX variant 119, 0.408 min⁻¹ with CasX variant 438 and 0.0187 min⁻¹ in the data set with CasX 2 (reference CasX).

B4: gRNA scaffold 174 + spacer 7.37 ; 7.37 TTT PAM target (ssRNA ; dsDNA)
RNA: ACUGGCGCUUUUAUCUGAUUACUUUGAGAGCCAUCACCAGCGACUAUGUCGUAGUGGGUAAAGCUCCCUCUUCGGAGGGAGCAUCAAAGGGGCCGAGAUGUCUCGCUCC
DNA 1: TGAAGCTGACAGCATTTGGGCCGAGATGTCTCGCTCCGTGGCCTTAGCTGTGCTCGCGCT
DNA 2: AGCGCGAGCACAGCTAAGGCCACGGAGCGAGACATCTCGGCCCAAATGCTGTCAGCTTCA
In the data set with CasX variant 491, B4 displayed an activity of 1.33 min⁻¹.

For the origin of these results see patent US20240360474 (Scribe Therapeutics Inc., published 2024).
